# T1: FcγRIIb extracellular domain with C-terminal His tag (human, UniProt P31994 43-217)
# T1 construct: extracellular domain; expressed in FreeStyle293 cells; analyte in the Biacore assay; also called FcgRIIb; 2b; not shown: His tag at the C terminus
# T1 sequence (looked up): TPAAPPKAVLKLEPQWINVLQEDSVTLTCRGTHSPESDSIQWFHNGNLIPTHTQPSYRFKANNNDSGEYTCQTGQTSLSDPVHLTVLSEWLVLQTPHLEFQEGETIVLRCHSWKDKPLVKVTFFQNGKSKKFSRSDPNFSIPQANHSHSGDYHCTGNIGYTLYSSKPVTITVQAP
# Molecular target: T1, FcγRIIb extracellular domain with …
# Test: SPR (Biacore), captured antibody, FcγRIIb analyte; binding relative to GpH7-A5/GpH7-B3/GpL16-k0 = 100
row,Binder,He/Con_2b
1,"GpH7-A5/GpH7-B3 variant P331_15Y/GpL16-k0 (antibody, human IgG1, kappa, heterodimerized; mutation in the B3 H chain only; also called He Ab P331_15Y) heavy 1: not shown heavy 2: not shown light: DIVMTQSPLSLPVTPGEPASISCQASESLVHSNRNTYLHWYLQKPGQSPQLLIYKVSNRFSGVPDRFSGSGSGTDFTLKISRVEAEDVGVYYCSQNTHVPPTFGQGTKVEIERTVAAPSVFIFPPSDEQLKSGTASVVCLLNNFYPREAKVQWKVDNALQSGNSQESVTEQDSKDSTYSLSSTLTLSKADYEKHKVYACEVTHQGLSSPVTKSFNRGEC",114 % of control
2,"GpH7-A5/GpH7-B3 variant P331_16H/GpL16-k0 (antibody, human IgG1, kappa, heterodimerized; mutation in the B3 H chain only; also called He Ab P331_16H) heavy 1: not shown heavy 2: not shown light: DIVMTQSPLSLPVTPGEPASISCQASESLVHSNRNTYLHWYLQKPGQSPQLLIYKVSNRFSGVPDRFSGSGSGTDFTLKISRVEAEDVGVYYCSQNTHVPPTFGQGTKVEIERTVAAPSVFIFPPSDEQLKSGTASVVCLLNNFYPREAKVQWKVDNALQSGNSQESVTEQDSKDSTYSLSSTLTLSKADYEKHKVYACEVTHQGLSSPVTKSFNRGEC",116 % of control
3,"GpH7-A5/GpH7-B3 variant P331_20W/GpL16-k0 (antibody, human IgG1, kappa, heterodimerized; mutation in the B3 H chain only; also called He Ab P331_20W) heavy 1: not shown heavy 2: not shown light: DIVMTQSPLSLPVTPGEPASISCQASESLVHSNRNTYLHWYLQKPGQSPQLLIYKVSNRFSGVPDRFSGSGSGTDFTLKISRVEAEDVGVYYCSQNTHVPPTFGQGTKVEIERTVAAPSVFIFPPSDEQLKSGTASVVCLLNNFYPREAKVQWKVDNALQSGNSQESVTEQDSKDSTYSLSSTLTLSKADYEKHKVYACEVTHQGLSSPVTKSFNRGEC",111 % of control
4,"GpH7-A5/GpH7-B3 variant S239_03V/GpL16-k0 (antibody, human IgG1, kappa, heterodimerized; mutation in the B3 H chain only; also called He Ab S239_03V) heavy 1: not shown heavy 2: not shown light: DIVMTQSPLSLPVTPGEPASISCQASESLVHSNRNTYLHWYLQKPGQSPQLLIYKVSNRFSGVPDRFSGSGSGTDFTLKISRVEAEDVGVYYCSQNTHVPPTFGQGTKVEIERTVAAPSVFIFPPSDEQLKSGTASVVCLLNNFYPREAKVQWKVDNALQSGNSQESVTEQDSKDSTYSLSSTLTLSKADYEKHKVYACEVTHQGLSSPVTKSFNRGEC",108 % of control
5,"GpH7-A5/GpH7-B3 variant S239_10E/GpL16-k0 (antibody, human IgG1, kappa, heterodimerized; mutation in the B3 H chain only; also called He Ab S239_10E) heavy 1: not shown heavy 2: not shown light: DIVMTQSPLSLPVTPGEPASISCQASESLVHSNRNTYLHWYLQKPGQSPQLLIYKVSNRFSGVPDRFSGSGSGTDFTLKISRVEAEDVGVYYCSQNTHVPPTFGQGTKVEIERTVAAPSVFIFPPSDEQLKSGTASVVCLLNNFYPREAKVQWKVDNALQSGNSQESVTEQDSKDSTYSLSSTLTLSKADYEKHKVYACEVTHQGLSSPVTKSFNRGEC",181 % of control
6,"GpH7-A5/GpH7-B3 variant S267_06M/GpL16-k0 (antibody, human IgG1, kappa, heterodimerized; mutation in the B3 H chain only; also called He Ab S267_06M) heavy 1: not shown heavy 2: not shown light: DIVMTQSPLSLPVTPGEPASISCQASESLVHSNRNTYLHWYLQKPGQSPQLLIYKVSNRFSGVPDRFSGSGSGTDFTLKISRVEAEDVGVYYCSQNTHVPPTFGQGTKVEIERTVAAPSVFIFPPSDEQLKSGTASVVCLLNNFYPREAKVQWKVDNALQSGNSQESVTEQDSKDSTYSLSSTLTLSKADYEKHKVYACEVTHQGLSSPVTKSFNRGEC",210 % of control
7,"GpH7-A5/GpH7-B3 variant S267_19Q/GpL16-k0 (antibody, human IgG1, kappa, heterodimerized; mutation in the B3 H chain only; also called He Ab S267_19Q) heavy 1: not shown heavy 2: not shown light: DIVMTQSPLSLPVTPGEPASISCQASESLVHSNRNTYLHWYLQKPGQSPQLLIYKVSNRFSGVPDRFSGSGSGTDFTLKISRVEAEDVGVYYCSQNTHVPPTFGQGTKVEIERTVAAPSVFIFPPSDEQLKSGTASVVCLLNNFYPREAKVQWKVDNALQSGNSQESVTEQDSKDSTYSLSSTLTLSKADYEKHKVYACEVTHQGLSSPVTKSFNRGEC",218 % of control
8,"GpH7-A5/GpH7-B3 variant S324_06M/GpL16-k0 (antibody, human IgG1, kappa, heterodimerized; mutation in the B3 H chain only; also called He Ab S324_06M) heavy 1: not shown heavy 2: not shown light: DIVMTQSPLSLPVTPGEPASISCQASESLVHSNRNTYLHWYLQKPGQSPQLLIYKVSNRFSGVPDRFSGSGSGTDFTLKISRVEAEDVGVYYCSQNTHVPPTFGQGTKVEIERTVAAPSVFIFPPSDEQLKSGTASVVCLLNNFYPREAKVQWKVDNALQSGNSQESVTEQDSKDSTYSLSSTLTLSKADYEKHKVYACEVTHQGLSSPVTKSFNRGEC",112 % of control
9,"GpH7-A5/GpH7-B3 variant S337_16H/GpL16-k0 (antibody, human IgG1, kappa, heterodimerized; mutation in the B3 H chain only; also called He Ab S337_16H) heavy 1: not shown heavy 2: not shown light: DIVMTQSPLSLPVTPGEPASISCQASESLVHSNRNTYLHWYLQKPGQSPQLLIYKVSNRFSGVPDRFSGSGSGTDFTLKISRVEAEDVGVYYCSQNTHVPPTFGQGTKVEIERTVAAPSVFIFPPSDEQLKSGTASVVCLLNNFYPREAKVQWKVDNALQSGNSQESVTEQDSKDSTYSLSSTLTLSKADYEKHKVYACEVTHQGLSSPVTKSFNRGEC",105 % of control
10,"GpH7-A5/GpH7-B3 variant T335_07I/GpL16-k0 (antibody, human IgG1, kappa, heterodimerized; mutation in the B3 H chain only; also called He Ab T335_07I) heavy 1: not shown heavy 2: not shown light: DIVMTQSPLSLPVTPGEPASISCQASESLVHSNRNTYLHWYLQKPGQSPQLLIYKVSNRFSGVPDRFSGSGSGTDFTLKISRVEAEDVGVYYCSQNTHVPPTFGQGTKVEIERTVAAPSVFIFPPSDEQLKSGTASVVCLLNNFYPREAKVQWKVDNALQSGNSQESVTEQDSKDSTYSLSSTLTLSKADYEKHKVYACEVTHQGLSSPVTKSFNRGEC",106 % of control
11,"GpH7-A5/GpH7-B3 variant T335_10E/GpL16-k0 (antibody, human IgG1, kappa, heterodimerized; mutation in the B3 H chain only; also called He Ab T335_10E) heavy 1: not shown heavy 2: not shown light: DIVMTQSPLSLPVTPGEPASISCQASESLVHSNRNTYLHWYLQKPGQSPQLLIYKVSNRFSGVPDRFSGSGSGTDFTLKISRVEAEDVGVYYCSQNTHVPPTFGQGTKVEIERTVAAPSVFIFPPSDEQLKSGTASVVCLLNNFYPREAKVQWKVDNALQSGNSQESVTEQDSKDSTYSLSSTLTLSKADYEKHKVYACEVTHQGLSSPVTKSFNRGEC",108 % of control

# From patent US20180155451A1 (published 2018)
